Experiment: soluble on expression in E. coli; label from the status in PepcDB or PDB records

Row | Sequence | soluble on expression in E. coli
1 | MGSDKIHHHHHHMFKGIIAALWDMDSIGEIEPDVVFLLKSDILNLKFHLKILKDRGKTVFVDMDFVNGLGEGEEAILFVKKAGADGIITIKPKNYVVAKKNGIPAVLRFFALDSKAVERGIEQIETLGVDVVEVLPGAVAPKVARKIPGRTVIAAGLVETEEEAREILKHVSAISTSSRILWKMKFLP | soluble
2 | MNTTQRADQQTSADRRRRELLEAADRVVLRDGPHASMNAIAAEAGITKPILYRHFGDKGGLYAALAVRHTDALLASLRAALDAPAQRRQRVEATLDTYLAAIEARPQVYRFLMHPAESAGTPGDQSEQGFDVGKHSAPLLRRMGEELAQVIEERLDVGPGTQQLARVWGHGIVGMMHAAGDWWLGERPCPREELVRTLADLLWGRLAEAGDKEGGPGF | not soluble
3 | MKVIIDGEVRTLKAAWYEDGEVKLIDQRELPDKIKIFSAKNSDDIAYAIKNMVVRGAPAIGVTAAYGLAMASKNGEDMNKAKEKIRATRPTAYDLFKAIRYMEVNGYDMNAARRYAMEIEGRSKKIGELGNELIRNGAKILTHCNAGALAVLDWGTALSPMRIAHNEGKNIFVFVDETRPRLQGAKLTAWELAQEGIDHAIIADNAAGFYMRRKEIDLVIVGADRIASNGDFANKIGTYEKAVLAKVNGIPFYVAAPGSTFDFSIRSGDEIPIEERDENEVLEINGIRIGPNESHSKNPAFDVTPNEYVTGFITEYGIFKPNELNKLKDLMDKDLFMNIK | not soluble
4 | MSLVFYGRRLTEAIEVLKQSKISIMLANKGPLIYYRRTGGFPEGPVEKALGLSSLDDLVICPVHSVQPEVSTYLLLRLRTPFIIPPRSTATIYLKAPVAAGVYVTANGEQRLVDYFGPSVFKYALYGPPAVGQVCRFYITDIFSEVPEAGPWEAVTKVVVENTSDNYVEIRNVIYPIVYAQFYIDNMGNAYLETSKLSITSSNVGVVELRNEPPISGLPTCLKTEGGLPLPFLKPAGEKIAKFLMEFGLEGHHHHHH | not soluble
5 | MSLSGKPITDQQIRLYVNERKQGQTQLAASAKSGLSERSGRRIDSGELNTEPTPKRQWRTRKDPLAEVWSSVLVPMLEANPELLPLTLFEYLHDNYPNQYDNTVLRTLQRRVKAWKVKHGPAKEVMFRQTKVPGRLGLSDFTLLKGVTITILGQVFCHLLYHYRLAFSGWTYAKVICGGESYTALSTGLQNALWRSGGAPLEHRTDSLSAAFNNLAEKEQMTVRYDALCHHYQLKGSRNNPGKSHENGTIEAAHGHLKRRMTQALLLRGDTDFTSLEAYQAFVDGIVTKINQQCRTRFEQERPLLQTLPKRRTHDYAEHSVLISSSSSFDLKRVTYTVPSRFIGERLYVQLYDERLDLFSGHEQIMSLPRVYATTTQRGRSVDYRHVIDSLVKKPGAFRYSQLRDDLLPTPDYHRIWQYVDGTLNPHDACRYIVRLLHLAATAQCQDSLGRYVLKSIEGGELPSNLQCNKRFSTDTAVIPLITAKQHLLADYDQLLCVEVQHGEGHHHHHH | not soluble
6 | MVKSLQLAHQLKDKRILLIGGGEVGLTRLYKLMPTGCKLTLVSPDLHKSIIPKFGKFIQNKDQPDYREDAKRFINPNWDPTKNEIYEYIRSDFKDEYLDLENENDAWYIIMTCIPDHPESARIYHLCKERFGKQQLVNVADKPDLCDFYFGANLEIGDRLQILISTNGLSPRFGALVRDEIRNLFTQMGDLALEDAVVKLGELRRGIRLLAPDDKDVKYRMDWARRCTDLFGIQHCHNIDVKRLLDLFKVMFQEQNCSLQFPPRERLLSEYCSS | soluble
7 | MSKNIVVAPSILSADFSRLGEEIKAVDEAGADWIHVDVMDGRFVPNITIGPLIVDAIRPLTKKTLDVHLMIVEPEKYVEDFAKAGADIISVHVEHNASPHLHRTLCQIRELGKKAGAVLNPSTPLDFLEYVLPVCDLILIMSVNPGFGGQSFIPEVLPKIRALRQMCDERGLDPWIEVDGGLKPNNTWQVLEAGANAIVAGSAVFNAPNYAEAIAGVRNSKRPEPQLATV | soluble
8 | MAENRNRKPSDSQVDAIKVPPHSLEAEQSVIGGLLLDNERWDTVAERVVASDFYSRPHRLIFEGVKTILESGKPLDLITLSEHLERHEQLEDVGGFAYLADLAKNTPSAANINAYADIVAERAIVRGLIGVANEIADAGYDPQGRSSEDLIDMAESKVFAIAESRTSENEGPQNVDNILEKTLERIELLYKTPQDGVTGVDTGFTDLNKKTAGLQGSDLVIVAARPSMGKTTFAMNLCENAAMQQDKPVLIFSLEMPAEQLMMRMLASLSRVDQTKIRTGQLDDEDWARISSTMGILMQKKNMYIDDSSGLTPTEVRSRARRVAREHGGLSMIMVDYLQLMRVPSLTDNRTLEIAEISRSLKALAKELNVPVVALSQLNRSLEQRADKRPVNSDLRESGSIEQDADLIMFIYRDEVYHPDSPYKGTAEIIIGKQRNGPIGSVRLTFQGQHSRFDNYAGPAFDIDDE | not soluble
9 | FTSNKDERRWMVQCGSFRGAEQAETVRAQLAFEGFDSKITTNNGWNRVVIGPVKGKENADSTLNRLKMAGHTNCIRLAAGG | soluble
10 | MSLDEKKLKALAVELAKGLKTEADLNSFSRMLAKLTVETVLNAELADHPGYEKNAPKTGSNTRNGYSSKTVLCDDGEIELNTPRDRENTFEPQLLKKHQTRITQMDSQILSLYAKGMTTREIVATFKEMYDANVSPSLISKVTDAVKEQVTERQNRQPDALYPIVYMDCIVVKVRQNGSVINKAVFLALGINTEGQKELLGMWLAENEGEKFWLSVLTELKTRGVQDILIACVDGLKGFPDAINSVFPQPHIQLCIIHMVRNSLKYVAWKGYKVATSGLRLRPKRRHEGHHHHHH | not soluble
11 | MSLKTIVVKFGTSTLTQGSPKLNSPHMMEIVRQIAQLHNDGFRIVIVTSGAIAAGRHYLNHPQLPPTIASKQLLAAVGQSQLIQAWEKLFAIYDIHIGQLLLTRADIEDRERFLNARDTLYALLDNHIIPVINENDAVATAEIKVGDNDNLSALVAILVQAEQLYLLTDQQGLFDSDPRKNPEAKLIPVVEQITDHIRSIAGGSGTNLGTGGMMTKIIAADVATRSGIETIIAPGNRPNVIADLAYEQNIGTKFIAHQSDRLESRKQWLFAAPSAGIITIDNGAQNAILEQNKSLLPAGIINVEGRFSRGEVVKIRTQSGKDIALGMPRYNSDALQLIKGRKSADIENVLGYEYGAVAMHRDDMIILSEGHHHHHH | soluble
12 | MGSDKIHHHHHHMIILDNHFHVDPINGLFLEAVKQFHRAGGTHLVVVYKSAHDYGFGGMKGEDFMRAMDFHVELVEIINKETPVKAYAVVGVHPAEFDYLARARGIEYAKREVMKALEHAQRLCLDGKAIGIGEVGRPHYPVPEEIWEASIEIMKYAMALAKEADCAVQLHTESFDEEKFRELGRYVREVGIKPYRVVKHFSPPLVKVAEEVGIFPSIIASRKNIEEAIKQGTRFLMETDYIDDKRRPGAVLGPKTVPRRTKELLQKGILTEDDVYRIHVENPEKVYGIEL | not soluble
13 | MSTNYEAIIIGAGQAGLAAAHELSRRGFTPGKDFLVLDSNDGPGGAWRHRWDSLTLGKAHGIADLPGLPMNRPDPKTPASTLVAGYYGAYENEFSFAVVRPVKVSRVEPTSEDPSSPLRVSSDDGREWITRMVLNATGTWTNPYVPYIPGIDKFQGKQLHTVNYRKAEDFKGKKVLVVGGGLSAVQFLLELEGLAETTWATRRPPNFTQREFDAGWGIAVERAVRERTFNGKAPASVVRTTGIPQIPDYLAGVDRGLIVSRGMFEEITPTGVVFGEPPAERSEGLGPSAGTTLAVPESWKPYPAGTHLDVDVIFWNTGFRAALRHLAPMKLRGQGRGIELIDEVSPASDARVLLVGYGSTASTVGATRAGRVAGRVAAKRLLVDVSPHVNLEHHHHHH | not soluble
14 | MGSDKIHHHHHHRLVEVGKGFSSTSVNTTVFRNNSIVTHGNTQYISYYDAEGWLMLGKRRLGTGEWILHRTQYKGHVKDAHNIISMMVDGDGYLHLSFDHHGHKLNYCRSIAPDTLVLGDKEPMIGNEEEDVTYPEFHLLADGGLLFVYRSGASGRGNMVMNRYDVKSRKWERVQDVLVDGENERNAYWQLYVDQSGTIHLSWVWRETWHVETNHDLCYARSFDGGRTWYKTNGQKYELPIRLGNAEYACRIPQNAELINQTSMSTDAGGHPYIATYWRNPDSDVPQYRIVWHDGVNWHNRQVSERKAPFSLKGGGTKMIPMSRPRMVVDNGEVYYLFRDQERGSKVSMYYTKDIQFGEWHVKDLTDFAVNAWEPSHDTELWKMKKQLHIYVQDTRQGDGEKQVETEPQMVYVLEL | not soluble
15 | MTKQYLTHRCLIAPPEMADDFFANTVIYLARHDDEGAQGLIINRPSGIQVRELLNDLDIEADHVQPHEVLQGGPLRPEAGFVLHTGQPVWHSSIAVGENLCITTSKDILDAIAHNEGVGRYQIALGYASWTKNQLEGEISRGDWLICDADMDLIFNLPYDERWDAAYKKLGVDRIWLSSEIGHALEHHHHHH | soluble
16 | MGSDKIHHHHHHMMVLEQPLKSFFTSLSQSKSMNKLAKKWGLKLGASQVVAGVTISEAIEKVKELNEKGLSATLDHLGEFVEERTEAIEATDHCIQTLEQIASSGVNCNLSLKLTQLGLDIDQSFCLENMERIIKKAAELGIFVRIDMEDYGHCQQTLDILAELRKTYDNVGTVIQAYLFRALDDVRALEGIPLRLVKGAYKESPEVAYQEKEKIDENYFNMIKLHLDSGTYTAIASHDHQIIDRVKAYVKEKGISHSQFEFQMLYGFRTNLQEELVKEGYNVRIYVPFGIDWFGYFMRRLAERPQNVAFALRGFFSK | not soluble
17 | MSLRTVLITGTTSGIGYALSELFAKKECHVILVSRNAMKLSAQKQKLENGNNRIDTITCDLEQTNAAEIIYKSIKQNGWQVDILVNNAGFNEAGLFSETDATCEQGMINLHINFVTDMMKLFIPEMIQNSHGHILNVGSTGSYIACPKDAVYAASKAYILHLSKAVHAELKGTGVTVTTLCPGSTRTEFAHKAKIEHTLLFKIFVMSPHKVALSGLRAMEKGKSVIIPGLYNKILVLCSRLLPYSFIGWMTKKMLEGHHHHHH | not soluble
18 | MKTVGVVLSGCGVLDGAEIHESVLTMLALDRAGAEVLFFAPDKPQLHVINHITGEIVAEERNVLVESARIARGLITPLSAADPEVLDALIVPGGFGAAKNLCDFAIKGGECSVEPDLYKLIQLMHKSGKPIGLMCISPVMLPKLLGKPIRLTIGNDPDTIDAIEIMGGEHVICPADDVVIDLENKVVTTPAYMLAGSISEAAKGIDKLVTKVLDLTE | not soluble
19 | MKTFTVQFHREDDVEAMNVGKLSQEDFDKATEGGTRHLFDLDTNIGYFVFFDAEDNEGKVSYLMLQYEEDNEDPSACYSFELKDFYEFMALYLNDLEFAEEEEMAEDGEEEYGPIHHLAHLLYHIVEKGKTVEV | not soluble
20 | MGSDKIHHHHHHMANSNMQATDAVAQDTASASGEFDALLNQAFRPKTTQAAKAVEAAVQTLAQQALANTITVSDDAYKSISAIIAQIDFKLTEQIKLILQHPDWQKLESSWRGMEHLVYNTETDEKLKIRFMNLSKDELRRNMKRYKGIAWDQSPMFKKLYEAEYGQLGGEPYGCIIADYYFDHTPPDVDLLGSIAKVAASAHAPFIAGASPSVLQMDSWQELANPRDLTKIVTQNLEYAPWNSLRASEDSRYIGLTMPRFLARLPYGAKTNPVDEFDFEEDADGSDHTKYVWSNAAYAMGVNINRSFKHYGWCTLIRGVESGGAVENLPCHTFPTDDGGVDMKCPTEIAISDRREAELAKNGFIPLIHRKNSDYAAFIGAQSLQKPQEYYDPDATANANLSARLPYLFACSRFAHFLKCIVRDKIGSFKEREDMQRWLNEWIMNYVDADPVNSSQETKARRPLAAAEVVVEEVEGNPGYYDAKFFLRPHFQLEGLTGSLRLVTKLPSVKQGNA | not soluble
21 | MEERLNRVKQQLQQSSYKLTPQREATVRVLIENEKDHLSAEDVYLKVKDKAPEIGLATVYRTLELLAELKVVDKINFGDGVARFDLRKEGAKHFHHHLVCMECGRVDEIDEDLLPEVENRVENEFNFKILDHRLTFHGVCETCQAKGKG | not soluble
22 | ILTENTPYFEQLSVPQRSVGRIIGRGGETIRSICKASGAKITCDKESEGTLLLSRLIKISGTQKEVAAAKHLILEKVSEDEELRKRIAHSA | soluble
